Measured values from patent publication US12252714B2, “Halogenation of complex organic compounds” (REGENTS OF THE UNIVERSITY OF MICHIGAN, priority 2018, dated 2025).

Assay: MalA biochemical activity assays, mutants versus wild-type MalA
Method: Biochemical activity assays were performed in a 100 μL volume with the following components: 18 μM MalA, 54 μM HpaC flavin reductase,^3 100 μM FAD, 50 mM NaCl, 250 μM substrate, 5 mM NADH, and brought to total volume with reaction buffer (same as storage bufferNaBr). The chlorination reactions proceeded for 20 minutes and the bromination reactions proceeded overnight. The reactions were extracted with ethyl acetate ([…], in triplicate) and dried down under nitrogen gas. The dried extract was resuspended in LC/MS grade methanol to a concentration of around 10 μM for LC/MS analysis. High resolution mass spectrometry was performed using electrospray ionization on an Agilent quadrupole time-of-flight spectrometer (Q-TOF 6500 series). Biochemical activity was monitored via the following HPLC method using acetonitrile and water: 65% acetonitrile for 5 minutes, gradient over 10 minutes to 95% acetonitrile, 95% acetonitrile for 5 minutes, gradient over 2 minutes to 65% acetonitrile, 65% acetonitrile for 11 minutes to re-equilibrate with a flow rate of 0.3 mL/minute, monitoring at 240 nm on a Phenomenex Lux cellulose-3, cellulose Tris (4-methylbenzoate) 250×4.6 mm column.

Molecule | halogenase activity relative to wild-type MalA (chlorination of compound 2) | also measured
MalA′: flavin-dependent halogenase from M. graminicola, generated by site-directed mutagenesis of malA: L276P/R428P (protein, UniProt L0E155 1-667, looked up, variant L276P R428P) Flavin-dependent halogenase …: MAPTPKYTFTERAAAGNLSDAEILNSNNPTGSELPDESDVVVGGAGIHGLIYALHASKYKPNNLKISVIEKNTRPGYKIGESTLPIFYTWCKLHGISAAYLLRLFGLKDGLCFYFLDRENQGQYTDFCSVGAPGLVLASLQIERPMSELLFTILAQRNGVNVYHGREVDFKSTVVQGGGQGNKIAVSRGKYDSTPKTIDSALFVDATGRFRQFCSKKAPRHRFDGWNCNAFWGYFTAPKDESKIPFDLYEGDHTNHLCFPEGWVWVIRLPSWEGSPIANLMDMVTYILECADAGVPGDELPSSEELARMFGLKFQWVTSIGFAVRNDVKYPEDLSAYGTREAEQKFNYFVQKYELLQQFMSNFELIENLYGPGTTWFIRKTLAYQSPVVSGPGWLAIGDACGFTNPLYSPGINVGMSTSTWAAQLSHPIVEIGKSAPADAAESSIRKLLVPYDDYCKSLVPALEQMNRFNYVCYRDTRLGPQVACLWQFFAGIERYLSDVNIETFAHYAIKWVWGAMVPEYQQVAQKCIEHIETVPLDERLPDAMVDELLAFSNRIKSAAVAADDFSLRWDAILRSFDRSLNFVEGKTSRDIYTRQCSGCGAWLQLRPDWKKCHSCGLLGTEPQTAVTFDPPLTAEEEALLYAAWNTAPKYDPSKELKLPTPTRPAA | essentially identical to MalA | 
E494Q: MalA halogenase variant, Glu494 substituted with glutamine (protein, UniProt L0E155 1-667, looked up, variant E494Q) Flavin-dependent halogenase …: MAPTPKYTFTERAAAGNLSDAEILNSNNPTGSELPDESDVVVGGAGIHGLIYALHASKYKPNNLKISVIEKNTRPGYKIGESTLPIFYTWCKLHGISAAYLLRLFGLKDGLCFYFLDRENQGQYTDFCSVGAPGLVLASLQIERPMSELLFTILAQRNGVNVYHGREVDFKSTVVQGGGQGNKIAVSRGKYDSTPKTIDSALFVDATGRFRQFCSKKAPRHRFDGWNCNAFWGYFTAPKDESKIPFDLYEGDHTNHLCFPEGWVWVIRLPSWEGSLIANLMDMVTYILECADAGVPGDELPSSEELARMFGLKFQWVTSIGFAVRNDVKYPEDLSAYGTREAEQKFNYFVQKYELLQQFMSNFELIENLYGPGTTWFIRKTLAYQSPVVSGPGWLAIGDACGFTNPLYSPGINVGMSTSTWAAQLSHRIVEIGKSAPADAAESSIRKLLVPYDDYCKSLVPALEQMNRFNYVCYRDTRLGPQVACLWQFFAGIQRYLSDVNIETFAHYAIKWVWGAMVPEYQQVAQKCIEHIETVPLDERLPDAMVDELLAFSNRIKSAAVAADDFSLRWDAILRSFDRSLNFVEGKTSRDIYTRQCSGCGAWLQLRPDWKKCHSCGLLGTEPQTAVTFDPPLTAEEEALLYAAWNTAPKYDPSKELKLPTPTRPAA | inactivated | 
E494A: MalA halogenase variant, Glu494 substituted with alanine (protein, UniProt L0E155 1-667, looked up, variant E494A) Flavin-dependent halogenase …: MAPTPKYTFTERAAAGNLSDAEILNSNNPTGSELPDESDVVVGGAGIHGLIYALHASKYKPNNLKISVIEKNTRPGYKIGESTLPIFYTWCKLHGISAAYLLRLFGLKDGLCFYFLDRENQGQYTDFCSVGAPGLVLASLQIERPMSELLFTILAQRNGVNVYHGREVDFKSTVVQGGGQGNKIAVSRGKYDSTPKTIDSALFVDATGRFRQFCSKKAPRHRFDGWNCNAFWGYFTAPKDESKIPFDLYEGDHTNHLCFPEGWVWVIRLPSWEGSLIANLMDMVTYILECADAGVPGDELPSSEELARMFGLKFQWVTSIGFAVRNDVKYPEDLSAYGTREAEQKFNYFVQKYELLQQFMSNFELIENLYGPGTTWFIRKTLAYQSPVVSGPGWLAIGDACGFTNPLYSPGINVGMSTSTWAAQLSHRIVEIGKSAPADAAESSIRKLLVPYDDYCKSLVPALEQMNRFNYVCYRDTRLGPQVACLWQFFAGIARYLSDVNIETFAHYAIKWVWGAMVPEYQQVAQKCIEHIETVPLDERLPDAMVDELLAFSNRIKSAAVAADDFSLRWDAILRSFDRSLNFVEGKTSRDIYTRQCSGCGAWLQLRPDWKKCHSCGLLGTEPQTAVTFDPPLTAEEEALLYAAWNTAPKYDPSKELKLPTPTRPAA | inactivated | 
MalA W265A: MalA flavin-dependent halogenase variant with W265A substitution (protein, UniProt L0E155 1-667, looked up, variant W265A) Flavin-dependent halogenase …: MAPTPKYTFTERAAAGNLSDAEILNSNNPTGSELPDESDVVVGGAGIHGLIYALHASKYKPNNLKISVIEKNTRPGYKIGESTLPIFYTWCKLHGISAAYLLRLFGLKDGLCFYFLDRENQGQYTDFCSVGAPGLVLASLQIERPMSELLFTILAQRNGVNVYHGREVDFKSTVVQGGGQGNKIAVSRGKYDSTPKTIDSALFVDATGRFRQFCSKKAPRHRFDGWNCNAFWGYFTAPKDESKIPFDLYEGDHTNHLCFPEGWVAVIRLPSWEGSLIANLMDMVTYILECADAGVPGDELPSSEELARMFGLKFQWVTSIGFAVRNDVKYPEDLSAYGTREAEQKFNYFVQKYELLQQFMSNFELIENLYGPGTTWFIRKTLAYQSPVVSGPGWLAIGDACGFTNPLYSPGINVGMSTSTWAAQLSHRIVEIGKSAPADAAESSIRKLLVPYDDYCKSLVPALEQMNRFNYVCYRDTRLGPQVACLWQFFAGIERYLSDVNIETFAHYAIKWVWGAMVPEYQQVAQKCIEHIETVPLDERLPDAMVDELLAFSNRIKSAAVAADDFSLRWDAILRSFDRSLNFVEGKTSRDIYTRQCSGCGAWLQLRPDWKKCHSCGLLGTEPQTAVTFDPPLTAEEEALLYAAWNTAPKYDPSKELKLPTPTRPAA | drastic decrease in activity | 
MalA W263A: MalA flavin-dependent halogenase variant with W263A substitution (protein, UniProt L0E155 1-667, looked up, variant W263A) Flavin-dependent halogenase …: MAPTPKYTFTERAAAGNLSDAEILNSNNPTGSELPDESDVVVGGAGIHGLIYALHASKYKPNNLKISVIEKNTRPGYKIGESTLPIFYTWCKLHGISAAYLLRLFGLKDGLCFYFLDRENQGQYTDFCSVGAPGLVLASLQIERPMSELLFTILAQRNGVNVYHGREVDFKSTVVQGGGQGNKIAVSRGKYDSTPKTIDSALFVDATGRFRQFCSKKAPRHRFDGWNCNAFWGYFTAPKDESKIPFDLYEGDHTNHLCFPEGAVWVIRLPSWEGSLIANLMDMVTYILECADAGVPGDELPSSEELARMFGLKFQWVTSIGFAVRNDVKYPEDLSAYGTREAEQKFNYFVQKYELLQQFMSNFELIENLYGPGTTWFIRKTLAYQSPVVSGPGWLAIGDACGFTNPLYSPGINVGMSTSTWAAQLSHRIVEIGKSAPADAAESSIRKLLVPYDDYCKSLVPALEQMNRFNYVCYRDTRLGPQVACLWQFFAGIERYLSDVNIETFAHYAIKWVWGAMVPEYQQVAQKCIEHIETVPLDERLPDAMVDELLAFSNRIKSAAVAADDFSLRWDAILRSFDRSLNFVEGKTSRDIYTRQCSGCGAWLQLRPDWKKCHSCGLLGTEPQTAVTFDPPLTAEEEALLYAAWNTAPKYDPSKELKLPTPTRPAA |  | production of compound 1 relative to wild-type MalA (chlorination of compound 2): 5%; production of compound 3 relative to wild-type MalA (chlorination of compound 2): 50%; production of compound 4 relative to wild-type MalA (chlorination of compound 2): 60%
E494D: MalA halogenase variant, Glu494 substituted with aspartate (protein, listed as Malbranchea graminicola, Wild-type MalA' protein, MalA halogenase variant, Glu494 substituted with aspartate) MAPTPKYTFTERAAAGNLSDAEILNSNNPTGSELPDESDVVVGGAGIHGLIYALHASKYKPNNLKISVIEKNTRPGYKIGESTLPIFYTWCKLHGISAAYLLRLFGLKDGLCFYFLDRENQGQYTDFCSVGAPGLVLASLQIERPMSELLFTILAQRNGVNVYHGREVDFKSTVVQGGGQGNKIAVSRGKYDSTPKTIDSALFVDATGRFRQFCSKKAPRHRFDGWNCNAFWGYFTAPKDESKIPFDLYEGDHTNHLCFPEGWVWVIRLPSWEGSPIANLMDMVTYILECADAGVPGDELPSSEELARMFGLKFQWVTSIGFAVRNDVKYPEDLSAYGTREAEQKFNYFVQKYELLQQFMSNFELIENLYGPGTTWFIRKTLAYQSPVVSGPGWLAIGDACGFTNPLYSPGINVGMSTSTWAAQLSHPIVEIGKSAPADAAESSIRKLLVPYDDYCKSLVPALEQMNRFNYVCYRDTRLGPQVACLWQFFAGIDRYLSDVNIETFAHYAIKWVWGAMVPEYQQVAQKCIEHIETVPLDERLPDAMVDELLAFSNRIKSAAVAADDFSLRWDAILRSFDRSLNFVEGKTSRDIYTRQCSGCGAWLQLRPDWKKCHSCGLLGTEPQTAVTFDPPLTAEEEALLYAAWNTAPKYDPSKELKLPTPTRPAA | slight activity | 
MalA H253A: MalA halogenase variant, His253 substituted with alanine (protein, UniProt L0E155 1-667, looked up, variant H253A) Flavin-dependent halogenase …: MAPTPKYTFTERAAAGNLSDAEILNSNNPTGSELPDESDVVVGGAGIHGLIYALHASKYKPNNLKISVIEKNTRPGYKIGESTLPIFYTWCKLHGISAAYLLRLFGLKDGLCFYFLDRENQGQYTDFCSVGAPGLVLASLQIERPMSELLFTILAQRNGVNVYHGREVDFKSTVVQGGGQGNKIAVSRGKYDSTPKTIDSALFVDATGRFRQFCSKKAPRHRFDGWNCNAFWGYFTAPKDESKIPFDLYEGDATNHLCFPEGWVWVIRLPSWEGSLIANLMDMVTYILECADAGVPGDELPSSEELARMFGLKFQWVTSIGFAVRNDVKYPEDLSAYGTREAEQKFNYFVQKYELLQQFMSNFELIENLYGPGTTWFIRKTLAYQSPVVSGPGWLAIGDACGFTNPLYSPGINVGMSTSTWAAQLSHRIVEIGKSAPADAAESSIRKLLVPYDDYCKSLVPALEQMNRFNYVCYRDTRLGPQVACLWQFFAGIERYLSDVNIETFAHYAIKWVWGAMVPEYQQVAQKCIEHIETVPLDERLPDAMVDELLAFSNRIKSAAVAADDFSLRWDAILRSFDRSLNFVEGKTSRDIYTRQCSGCGAWLQLRPDWKKCHSCGLLGTEPQTAVTFDPPLTAEEEALLYAAWNTAPKYDPSKELKLPTPTRPAA |  | site-selectivity profile of bromination (bromination of compound 2): same product profile as the wild-type MalA; site-selectivity of chlorination (chlorination of compound 2, C8 versus C9): selective for producing the C9-chlorinated compound 3
